Results published in paper PMC4829898.

Target: recombinant soluble tetrameric neuraminidase (tetNA) (Staphylothermus marinus | influenza A virus A/Belgium/2009 (H1N1, 2009 pandemic))
Assay: SEC

Substance “recombinant soluble tetrameric neuraminidase (tetNA) (enzyme)” has a stoichiometry N of 4.
